Data reported in US20230348564A1, “ANTI-CANCER PROTEINS” (UNICHEM LABORATORIES LTD, priority 2020, published 2023).

How the values were obtained:
[1] = tested on: EA.hy926 (Human endothelial cells); test: Cell migration by scratch assay in endothelial cells; format: cell-based
Description: EA.hy296 cells were counted using hemocytometer and plated in 6-well plates at the density of 0.5×10^6 cells/well. The cells were incubated overnight under growth conditions as described above so as to allow cell recovery and exponential growth. Following overnight incubation, a small linear scratch (representative wound) was created in the confluent monolayer (middle of the well) by gently scraping with sterile 200 μl micropipette tip. Photomicrographs of the scratch were taken at 0 h (Initial time point). Cells were rinsed with serum free DMEM and grouped for treatment in two different serum conditions:
• Baseline control: Cells+DMEM • Positive/Validation control: Baseline control+Positive Control. Test: Baseline control+Test Item
• Baseline control: Cells+DMEM+1% FBS • Positive/Validation control: Baseline control+Positive Control. • Test: Baseline control+Test item
Photomicrographs of the scratch were taken at 24 h-72 h time points. The photomicrographs obtained in the above step were analyzed for quantitative assessment of area of wound closure using ImageJ tool software. Percentage migration with respect to untreated cells at different time points was calculated.

[2] = tested on: neovascularization of Matrigel plug containing FGF-2 (bFGF); test: Matrigel plug assay (in-vivo anti-angiogenesis); set-up: species or system C57BL/6 mice; conditions: qdx15
Description: Healthy C57BL/6 mice were selected and grouped on the basis of body weight into […] (G1-G4, n=7). Each mouse of group G2-G4 was subcutaneously injected at right flank region with 500 μl of matrigel containing 500 ng of FGF-2 (bFGF). Whereas mice of G1 group were subcutaneously injected at right flank region with 500 μl of matrigel only. In this assay, angiogenesis-inducing compounds such as bFGF was introduced into cold liquid Matrigel which, after subcutaneous injection, solidified and permits penetration by host cells and the formation of new blood vessels (neovascularization).
Required amount of test items were taken and added to an appropriate volume of Tris Buffered Saline (TBS) to achieve the required concentrations. The dose volume given to animal was 10 mL/Kg.
Daily cage-side observations were carried out to detect any clinical signs or mortality and recorded throughout the experiment period.

Glioblastoma (LN-18) = test: cytotoxicity in Brain Tumor Cell lines by MTT assay; format: cell-based, Human; conditions: 72 h
Description: (§1) The SEQ ID NO. […] Untreated cells were used as control. […] Cells were incubated for 3 h at 37° C.

Neuroblastoma (SH-SY5Y) = test: as above; format: cell-based, Human; conditions: 72 h
Description: as §1

[3] = tested on: Human Primary mammary epithelial (HMEC) cells; test: Calcein AM cytotoxicity assay; conditions: 48h
Description: (§2) All the cancer cell lines were procured from National Centre for Cell Science, Pune (India). The cell lines were maintained under conditions as described in Table 21 below. The cell lines were sub-cultured by trypsinization followed by splitting the cell suspension into fresh flasks and supplementing with fresh culture medium.
(§3) All the cell lines were grown in specified media at 37° C. with 95% Humidity and […].
(§4) The cells were trypsinized, counted by Trypan blue method in Neuebauer's Chamber and plated in wells of flat bottom 96-well plate (dark walled plate, flat bottom) at the density corresponding to 10×10^3 cells/well/180 μl medium.
(§5) Following overnight incubation, the cells were treated with test item (20 μL) at concentrations ranging from 2.5-80 μg/mL, so that the total volume in each well is 200 μL.
(§6) The cells were incubated with the test items or positive control for a time period of 48h. Following incubation, the cell cytotoxicity was estimated using Calcein AM Cell Viability Assay Kit from R&D systems (Cat No. 4892-010-K).
(§7) Fluorescence was measured at 485 nm (excitation/528 run (emission) spectra using Synergy HT micro plate reader.
(§8) Percentage cytotoxicity wrt untreated cells was calculated using formula:
(§9) Cytotoxicity=[(RFUuntreated−RFUsample)/RFUuntreated]*100
(§10) RFU: relative fluorescence units
(§11) IC50 value was calculated using Graph-Pad Prism version 4.01 software.

[4] = tested on: PBMCs (Peripheral blood mononuclear cells); test: Calcein AM cytotoxicity assay; conditions: 48h
Description: as §2, §3, §4, §5, §6, §7, §8, §9, §10, §11

[5] = tested on: PC-3 (Human Prostate Cancer); test: Calcein AM cytotoxicity assay; conditions: 48h
Description: as §2, §3, §4, §5, §6, §7, §8, §9, §10, §11

[6] = tested on: SK-Mel-28 (Human melanoma); test: Calcein AM cytotoxicity assay; conditions: 48h
Description: as §2, §3, §4, §5, §6, §7, §8, §9, §10, §11

[7] = tested on: SKOV-3 (Human Ovary adenocarcinoma); test: Calcein AM cytotoxicity assay; conditions: 48h
Description: as §2, §3, §4, §5, §6, §7, §8, §9, §10, §11

[8] = tested on: SW620 (Human Colorectal adenocarcinoma); test: Calcein AM cytotoxicity assay; conditions: 48h
Description: as §2, §3, §4, §5, §6, §7, §8, §9, §10, §11

[9] = tested on: ZR-75-1 (Human ductal carcinoma); test: Calcein AM cytotoxicity assay; conditions: 48h
Description: as §2, §3, §4, §5, §6, §7, §8, §9, §10, §11

Glioblastoma (U251MG) = test: cytotoxicity in Brain Tumor Cell lines by MTT assay; conditions: 72 h

B1: SEQ ID NO. 2: recombinant lectin; variant of the S. rolfsii lectin amino acid sequence (reported as Rec-2 in WO 2010/095143) (protein)
chain: TYKITVRVYQTNPDAFFHPVEKTVWKYANGGTWTITDDQHVLTMGGSGTSGTLRFHADNGESFTATFGVHNYKRWCDIVTNLAADETGMVINQQYYSQKNREEARERQLSNYQVKNAKGRNFQIVYTEAEGNDLHANLIIG
modifications: In vitro synthesis
For B1, the “inhibition of endothelial cells migration as compared to control (DMEM)” value ([1]; 20 μg/mL to 100 μg/mL, after 72 hrs) was 71.5% to 82.4%, the “Inhibition of migration with respect to untreated” value (“Inhibition of migration” for short) ([1]; 20 μg/mL, 24 h, 1% FBS) was 0.8% and the “Inhibition of migration” value ([1]; 20 μg/mL, 24 h, SFM) was 74%. The “Inhibition of migration” value ([1]; 20 μg/mL, 48 h, 1% FBS) was 5.4%, the “Inhibition of migration” value ([1]; 20 μg/mL, 48 h, SFM) was 81.1% and the “Inhibition of migration” value ([1]; 20 μg/mL, 72 h, SFM) was 82.4%. The “Inhibition of migration” value ([1]; 40 μg/mL, 24 h, 1% FBS) was 28.5%, the “Inhibition of migration” value ([1]; 40 μg/mL, 24 h, SFM) was 80.5% and the “Inhibition of migration” value ([1]; 40 μg/mL, 48 h, 1% FBS) was 35.3%. The “Inhibition of migration” value ([1]; 40 μg/mL, 48 h, SFM) was 82.3%, the “Inhibition of migration” value ([1]; 40 μg/mL, 72 h, SFM) was 82.2% and the “Inhibition of migration” value ([1]; 50 μg/mL, 24 h, 1% FBS) was 30.0%. For the same molecule, the “Inhibition of migration” value ([1]; 50 μg/mL, 24 h, SFM) was 79.9%, the “Inhibition of migration” value ([1]; 50 μg/mL, 48 h, 1% FBS) was 42.9% and the “Inhibition of migration” value ([1]; 50 μg/mL, 48 h, SFM) was 81%. The “Inhibition of migration” value ([1]; 50 μg/mL, 72 h, SFM) was 79.5%, the “Inhibition of migration” value ([1]; 60 μg/mL, 24 h, 1% FBS) was 50.1% and the “Inhibition of migration” value ([1]; 60 μg/mL, 24 h, SFM) was 82.0%. For the same molecule, the “Inhibition of migration” value ([1]; 60 μg/mL, 48 h, 1% FBS) was 63.5%, the “Inhibition of migration” value ([1]; 60 μg/mL, 48 h, SFM) was 77.3% and the “Inhibition of migration” value ([1]; 60 μg/mL, 72 h, SFM) was 76.0%. For the same molecule, the “Inhibition of migration” value ([1]; 80 μg/mL, 24 h, 1% FBS) was 65.6%, the “Inhibition of migration” value ([1]; 80 μg/mL, 24 h, SFM) was 80.5% and the “Inhibition of migration” value ([1]; 80 μg/mL, 48 h, 1% FBS) was 77.8%. The “Inhibition of migration” value ([1]; 80 μg/mL, 48 h, SFM) was 78.2%, the “Inhibition of migration” value ([1]; 80 μg/mL, 72 h, SFM) was 74.5% and the “Inhibition of migration” value ([1]; 100 μg/mL, 24 h, 1% FBS) was 73.8%. The “Inhibition of migration” value ([1]; 100 μg/mL, 24 h, SFM) was 55.7%, the “Inhibition of migration” value ([1]; 100 μg/mL, 48 h, 1% FBS) was 73.1% and the “Inhibition of migration” value ([1]; 100 μg/mL, 48 h, SFM) was 73.2%. The “Inhibition of migration” value ([1]; 100 μg/mL, 72 h, SFM) was 71.5%, the “neovascularization (H&E histology), in words” value ([2]; 10 mg/Kg, i.p.) was “marginally reduced” and the “Hemoglobin Content in the Matrigel Plug Section, Mean” value ([2]; G4, 10 mg/Kg, i.p.) was 41.10. The “reduction in hemoglobin content in homogenate of Matrigel plug compared to positive control” value ([2]; G4, 10 mg/Kg, i.p.) was 23.6%, the “Histological Observation, Fat cell Infiltration, Mean” value ([2]; G4, 10 mg/Kg) was 1.57 and the “Histological Observation, Fibroblast Infiltration, Mean” value ([2]; G4, 10 mg/Kg) was 3.29. The “Histological Observation, MN cell Infiltration, Mean” value ([2]; G4, 10 mg/Kg) was 2.71, the “Histological Observation, Neovascularization, Mean” value ([2]; G4, 10 mg/Kg) was 2.43 and the “% of cytotoxicity” value (Glioblastoma (LN-18); 2.5 μg/mL-100 μg/mL) was 39.6%-75.3%. For the same molecule, the “IC50 Value” (Glioblastoma (LN-18)) was 4.35 µg/mL, the “% of cytotoxicity” value (Neuroblastoma (SH-SY5Y); 2.5 μg/mL-100 μg/mL) was 10.3%-46.9% and the “IC50 Value” (Neuroblastoma (SH-SY5Y)) was greater than 100 µg/mL. It also gave an IC50 [3] greater than 80 µg/mL, an IC50 [4] greater than 80 µg/mL and an IC50 [5] greater than 80 µg/mL. The IC50 [6] was greater than 80 µg/mL, the IC50 [7] was greater than 80 µg/mL and the IC50 [8] was greater than 80 µg/mL. For the same molecule, the IC50 [9] was greater than 80 µg/mL, the “% Cytotoxicity” value (AGS) was 65.3% and the “% Cytotoxicity” value (HT-29) was 54.9%. The “% Cytotoxicity” value (T-24) was 93.1% and the “IC50 Value” (Glioblastoma (U251MG)) was 11.05 µg/mL.
